This test concerns the target p53-binding domain of human MdmX (N-MdmX, amino acids 22-110) (human) (UniProt O15151). Nature of the test: ITC; ITC-200 at 25 °C; 19 injections of 2.0 µL of ~0.2 mM ligand into ~10–20 µM protein in the cell; one-set-of-binding-sites model. A general note: ITC needs no label: the signal is the heat of the interaction.

Sequence of p53-binding domain of human MdmX (N-MdmX, amino acids 22-110) (human) (O15151 22-110): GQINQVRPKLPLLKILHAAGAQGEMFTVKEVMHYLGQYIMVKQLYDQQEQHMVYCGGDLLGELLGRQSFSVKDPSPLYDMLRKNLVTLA

Broadly, the Kd is the free concentration of one partner at which half of the binding sites on the other are occupied at equilibrium, for simple one-to-one binding. Low readings indicate tighter binding, high ones weaker binding. “p53 transactivation domain peptide (p53p)” showed a Kd of 360 nM.

(Values after PMC8885691, “Leveraging the multivalent p53 peptide-MdmX interaction to guide the improvement of small molecule inhibitors” (Nature Communications, 2022).)
